Results published in US20140271469A1 (Stanford University, published 2014).
Changes are numbered by the printed parent chain. Ends that are not written are not given here. * marks the point of attachment. DOTA = O=C(O)CN1CCN(CC(=O)O)CCN(CC(=O)*)CCN(CC(=O)O)CC1

Experiments:
[1] = molecular target: T1, Recombinant human integrin αvβ6 (human), P06756; test: cell sorting study, peptide expressed on the surface of yeast
T1 chain 1: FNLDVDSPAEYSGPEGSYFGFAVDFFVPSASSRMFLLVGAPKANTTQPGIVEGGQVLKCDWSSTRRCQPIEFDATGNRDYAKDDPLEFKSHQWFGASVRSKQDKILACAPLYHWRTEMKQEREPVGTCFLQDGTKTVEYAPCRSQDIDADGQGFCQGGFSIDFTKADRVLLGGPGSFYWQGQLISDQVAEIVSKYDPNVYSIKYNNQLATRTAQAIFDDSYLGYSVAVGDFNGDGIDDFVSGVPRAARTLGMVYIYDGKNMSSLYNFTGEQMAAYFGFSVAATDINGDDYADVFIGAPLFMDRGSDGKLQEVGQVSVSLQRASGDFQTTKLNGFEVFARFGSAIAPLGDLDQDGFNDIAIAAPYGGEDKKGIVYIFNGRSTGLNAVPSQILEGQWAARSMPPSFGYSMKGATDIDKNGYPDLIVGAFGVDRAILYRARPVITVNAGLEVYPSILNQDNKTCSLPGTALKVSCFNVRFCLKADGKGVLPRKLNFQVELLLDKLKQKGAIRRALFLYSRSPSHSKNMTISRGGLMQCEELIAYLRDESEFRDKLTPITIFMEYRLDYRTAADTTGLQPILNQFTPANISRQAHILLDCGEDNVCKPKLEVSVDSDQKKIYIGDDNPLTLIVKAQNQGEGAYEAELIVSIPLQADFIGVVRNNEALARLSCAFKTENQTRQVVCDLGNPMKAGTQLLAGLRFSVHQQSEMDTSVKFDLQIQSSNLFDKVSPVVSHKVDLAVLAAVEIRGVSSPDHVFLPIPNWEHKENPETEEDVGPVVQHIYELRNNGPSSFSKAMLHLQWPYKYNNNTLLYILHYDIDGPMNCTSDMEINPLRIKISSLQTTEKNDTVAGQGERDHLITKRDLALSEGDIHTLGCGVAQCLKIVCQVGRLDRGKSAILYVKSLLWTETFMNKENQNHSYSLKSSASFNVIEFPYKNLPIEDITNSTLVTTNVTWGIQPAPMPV
T1 chain 2: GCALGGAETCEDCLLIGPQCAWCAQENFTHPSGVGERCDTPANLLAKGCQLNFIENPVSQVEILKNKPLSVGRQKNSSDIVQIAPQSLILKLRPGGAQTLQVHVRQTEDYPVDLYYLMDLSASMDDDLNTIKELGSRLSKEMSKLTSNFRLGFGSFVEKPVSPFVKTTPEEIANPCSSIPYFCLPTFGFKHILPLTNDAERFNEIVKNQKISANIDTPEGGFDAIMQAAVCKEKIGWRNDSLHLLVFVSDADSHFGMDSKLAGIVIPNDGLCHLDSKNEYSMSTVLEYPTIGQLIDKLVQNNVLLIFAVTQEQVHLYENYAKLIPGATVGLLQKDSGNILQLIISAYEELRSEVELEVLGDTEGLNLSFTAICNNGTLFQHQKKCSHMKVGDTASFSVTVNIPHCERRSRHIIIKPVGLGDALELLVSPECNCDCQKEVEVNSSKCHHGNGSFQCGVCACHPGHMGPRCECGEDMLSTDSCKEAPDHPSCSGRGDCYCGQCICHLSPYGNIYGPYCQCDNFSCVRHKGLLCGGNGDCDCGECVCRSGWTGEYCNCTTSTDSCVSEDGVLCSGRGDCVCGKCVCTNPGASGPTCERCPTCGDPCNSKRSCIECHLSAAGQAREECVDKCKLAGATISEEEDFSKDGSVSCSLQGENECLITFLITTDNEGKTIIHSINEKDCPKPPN

[2] = molecular target: T2, Recombinant human integrin αvβ6 (human, UniProt P06756 31-992; P18564 22-707); test: as above
T2 construct: Bought soluble heterodimer; also called alpha-v-beta-6; avb6

[3] = molecular target: T2, Recombinant human integrin αvβ6; test: flow cytometry, peptide displayed on yeast, soluble integrin αvβ6
[4] = molecular target: Recombinant human integrin α5β1 (human, UniProt P08648 42-995; P05556 21-728); test: flow cytometry, peptide displayed on yeast, soluble integrin (FIG. 1C)
[5] = molecular target: T2, Recombinant human integrin αvβ6; test: binding of scrambled peptide to soluble integrin αvβ6, normalised to R02 at 1 nM (FIG. 3A)
[6] = molecular target: Recombinant human integrin αvβ3 (human, UniProt P06756 31-992; P05106 27-718); test: flow cytometry, peptide displayed on yeast, soluble integrin (FIG. 1C)
[7] = molecular target: Recombinant human integrin αvβ5 (human, UniProt P06756 31-992; P18084 24-719); test: as above
[8] = molecular target: T2, Recombinant human integrin αvβ6; test: flow cytometry of yeast-displayed grafts with integrin αvβ6 (data not shown)
[9] = molecular target: T3, Native integrin αvβ6 on cells (BxPC-3, A431) (human, UniProt P06756 31-1048; P18564 22-788); test: cell uptake assay with radiolabeled peptide (FIG. 5)
T3 construct: whole, on cells; The cells also carry other integrins; also called integrin αvβ6 expressing cells; target expressing cells

[10] = molecular target: T2, Recombinant human integrin αvβ6; test: flow cytometry, 10 nM integrin αvβ6, relative to R02

Recombinant human integrin αvβ5, sequence (P18084 24-719, one chain of several): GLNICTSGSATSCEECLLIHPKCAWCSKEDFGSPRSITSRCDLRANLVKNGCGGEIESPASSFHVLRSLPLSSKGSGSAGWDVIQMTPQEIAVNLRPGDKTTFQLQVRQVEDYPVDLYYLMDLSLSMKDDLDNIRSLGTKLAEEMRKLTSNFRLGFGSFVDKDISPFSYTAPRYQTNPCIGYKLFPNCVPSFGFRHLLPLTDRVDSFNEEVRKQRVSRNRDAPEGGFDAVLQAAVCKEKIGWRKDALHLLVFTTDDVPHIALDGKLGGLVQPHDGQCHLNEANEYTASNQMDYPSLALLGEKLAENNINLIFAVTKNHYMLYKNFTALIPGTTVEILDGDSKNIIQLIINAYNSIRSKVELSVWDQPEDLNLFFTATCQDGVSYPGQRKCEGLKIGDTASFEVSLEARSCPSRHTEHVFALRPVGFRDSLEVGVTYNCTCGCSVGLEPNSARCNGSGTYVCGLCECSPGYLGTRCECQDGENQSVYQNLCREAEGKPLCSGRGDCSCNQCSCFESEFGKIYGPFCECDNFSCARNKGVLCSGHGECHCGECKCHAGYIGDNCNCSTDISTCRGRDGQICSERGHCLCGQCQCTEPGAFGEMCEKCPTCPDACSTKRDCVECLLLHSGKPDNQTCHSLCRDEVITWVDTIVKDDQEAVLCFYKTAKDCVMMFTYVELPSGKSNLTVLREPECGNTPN
Recombinant human integrin αvβ3, sequence (P05106 27-718, one chain of several): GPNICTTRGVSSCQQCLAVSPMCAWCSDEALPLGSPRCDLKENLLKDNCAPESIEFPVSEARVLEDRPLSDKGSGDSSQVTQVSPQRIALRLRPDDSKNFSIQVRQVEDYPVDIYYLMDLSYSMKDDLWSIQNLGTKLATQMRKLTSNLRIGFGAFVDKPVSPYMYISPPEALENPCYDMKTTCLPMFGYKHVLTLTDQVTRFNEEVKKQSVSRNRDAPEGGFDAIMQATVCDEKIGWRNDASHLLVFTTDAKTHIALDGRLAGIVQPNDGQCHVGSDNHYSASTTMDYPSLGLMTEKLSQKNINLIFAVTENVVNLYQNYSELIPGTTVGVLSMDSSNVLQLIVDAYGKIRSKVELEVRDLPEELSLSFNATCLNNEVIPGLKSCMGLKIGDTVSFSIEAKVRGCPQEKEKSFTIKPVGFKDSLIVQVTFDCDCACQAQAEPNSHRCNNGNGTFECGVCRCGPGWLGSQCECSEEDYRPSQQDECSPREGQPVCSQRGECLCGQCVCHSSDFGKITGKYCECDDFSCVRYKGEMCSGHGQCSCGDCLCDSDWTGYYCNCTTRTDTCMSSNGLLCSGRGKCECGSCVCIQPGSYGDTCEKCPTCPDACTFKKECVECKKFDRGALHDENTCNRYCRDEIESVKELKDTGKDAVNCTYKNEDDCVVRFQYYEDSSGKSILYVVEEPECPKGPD
Recombinant human integrin α5β1, sequence (P08648 42-995, chain 1 of 2): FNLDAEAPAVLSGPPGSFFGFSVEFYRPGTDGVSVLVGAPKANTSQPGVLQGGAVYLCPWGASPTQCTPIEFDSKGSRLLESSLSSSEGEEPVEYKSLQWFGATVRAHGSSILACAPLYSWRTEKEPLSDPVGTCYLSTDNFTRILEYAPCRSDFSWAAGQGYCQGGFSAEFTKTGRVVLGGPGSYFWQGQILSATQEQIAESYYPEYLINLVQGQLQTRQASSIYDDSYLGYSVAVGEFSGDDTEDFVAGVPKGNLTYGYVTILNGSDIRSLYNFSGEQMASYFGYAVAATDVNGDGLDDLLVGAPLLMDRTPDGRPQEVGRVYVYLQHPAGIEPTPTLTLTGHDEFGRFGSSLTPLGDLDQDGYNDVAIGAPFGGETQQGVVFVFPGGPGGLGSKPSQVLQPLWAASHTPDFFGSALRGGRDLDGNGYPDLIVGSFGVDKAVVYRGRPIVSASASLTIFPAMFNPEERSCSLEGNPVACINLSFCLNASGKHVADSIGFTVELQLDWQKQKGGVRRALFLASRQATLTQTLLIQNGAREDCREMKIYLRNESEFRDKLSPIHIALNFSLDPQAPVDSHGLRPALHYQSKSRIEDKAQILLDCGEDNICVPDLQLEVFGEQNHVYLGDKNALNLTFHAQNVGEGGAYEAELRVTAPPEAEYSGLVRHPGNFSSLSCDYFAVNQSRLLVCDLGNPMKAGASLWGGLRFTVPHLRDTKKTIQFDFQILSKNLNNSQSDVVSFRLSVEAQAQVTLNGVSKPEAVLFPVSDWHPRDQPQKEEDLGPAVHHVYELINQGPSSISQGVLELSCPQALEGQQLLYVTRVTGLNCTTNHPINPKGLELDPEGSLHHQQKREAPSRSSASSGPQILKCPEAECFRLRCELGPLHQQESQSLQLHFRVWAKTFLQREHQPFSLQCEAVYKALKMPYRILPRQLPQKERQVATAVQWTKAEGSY
Recombinant human integrin α5β1, sequence (P05556 21-728, chain 2 of 2): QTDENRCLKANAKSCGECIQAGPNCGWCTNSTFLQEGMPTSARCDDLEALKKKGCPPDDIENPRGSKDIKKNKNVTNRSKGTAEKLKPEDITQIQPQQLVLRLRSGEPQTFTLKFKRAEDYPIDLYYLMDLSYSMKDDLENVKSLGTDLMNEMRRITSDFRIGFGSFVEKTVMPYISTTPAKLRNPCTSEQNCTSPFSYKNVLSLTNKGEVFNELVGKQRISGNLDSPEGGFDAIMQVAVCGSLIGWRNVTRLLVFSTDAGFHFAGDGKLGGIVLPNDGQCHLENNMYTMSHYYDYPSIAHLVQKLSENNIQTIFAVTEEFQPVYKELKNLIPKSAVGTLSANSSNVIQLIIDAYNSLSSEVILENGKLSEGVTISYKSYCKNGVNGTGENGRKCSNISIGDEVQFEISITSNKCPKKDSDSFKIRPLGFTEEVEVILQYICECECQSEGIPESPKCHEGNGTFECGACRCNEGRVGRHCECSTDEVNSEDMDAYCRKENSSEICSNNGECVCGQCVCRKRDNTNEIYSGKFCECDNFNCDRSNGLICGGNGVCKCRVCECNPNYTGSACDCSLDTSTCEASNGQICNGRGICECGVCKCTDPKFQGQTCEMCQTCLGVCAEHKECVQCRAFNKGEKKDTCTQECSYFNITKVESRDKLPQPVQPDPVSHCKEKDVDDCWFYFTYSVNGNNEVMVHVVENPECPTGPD

**Q.** Which Kd [1] does the source give for GCILNRRTDLGTLLFRCRRDSDCPGACICRGNGYCG (modifications not checked) [MΔR] here?
**A.** 0.95 nM

**Q.** With GCILNMRTDLGTLLFRCRRDSDCPGACICRGNGYCG (also called wild-type R01; wt) [R01] as the binder, how does the Kd [2] read?
**A.** 1.07 nM

**Q.** And the Kd [3]?
**A.** 3.6 nM

**Q.** Does GCILNMRTDLGTLLFRCRRDSDCPGACICRGNGYCG (also called wild-type R01; wt) [R01] bind [4]?
**A.** no binding

**Q.** Which Kd [1] does the source give for GCILNGRTDLGTLLFRCRRDSDCPGACICRGNGYCG (modifications not checked) [MΔG] here?
**A.** 1.24 nM

**Q.** How did the Kd [2] turn out when GCILNWRTDLGTLLFRCRRDSDCPGACICRGNGYCG (also called R01 tryptophan substitution) [MΔW] was run?
**A.** 1.69 nM

**Q.** Does GCILNMRDTLGTLLFRCRRDSDCPGACICRGNGYCG (also called scrambled R01) [scR01] bind [5]?
**A.** no binding (tested: 100 nM and 300 nM integrin αvβ6)

B1: S02 (peptide)
peptide: GCRSLARTDLDHLRDRCSSDSDCLAECICLENGFCG
modifications: disulfide (positions not given here); not fully specified (bridges); also: three disulfide bonds, places not given here
notes: also called activity '2' in the S0 scaffold
**Q.** With B1 as the binder, how does the Kd [3] read?
**A.** 6 nM

**Q.** Does B1 bind [6]?
**A.** no binding

**Q.** Does B1 bind [7]?
**A.** no binding

**Q.** Does B1 bind [4]?
**A.** no binding

B2: S03 (peptide)
peptide: B1 peptide with S4L, L5V, A6F, D15G
notes: It says only that activity '3' was tested in the S0 scaffold; The chain is composed here from the loop of R03 and the scaffold of S02, and the residue limits were counted by me; also called activity '3' in the S0 scaffold
**Q.** Which results are given for B2?
**A.** Kd [3]: 3.1 nM; binding result [6]: no binding; binding result [7]: no binding; binding result [4]: no binding

**Q.** Does GCRSLARDTLDHLRDRCSSDSDCLAECICLENGFCG (also called scrambled S02) [scS02] bind [5]?
**A.** no binding (tested: 100 nM and 300 nM integrin αvβ6)

B3: S01 (peptide)
peptide: GCILNMRTDLGTLLFRCSSDSDCLAECICLENGFCG
notes: It says only that activity '1' was tested in the S0 scaffold; also called activity '1' in the S0 scaffold
**Q.** For B3, which Kd [3] is on record?
**A.** 6.5 nM

**Q.** Does B3 bind [6]?
**A.** no binding

**Q.** Does B3 bind [7]?
**A.** no binding

**Q.** Does B3 bind [4]?
**A.** no binding

**Q.** Does GCGGHPRTDLASLAKRCRRDSDCPGACICRGNGYCG (also called graft 3) [G3] bind [8]?
**A.** binds

**Q.** Does {DOTA}-GCRSLARTDLDHLRGRCRRDSDCPGACICRGNGYCG (cysteine pairing not given here; also: 64Cu complex of DOTA, also called 64Cu-DOTA-labeled R02) [64Cu-DOTA-R02] bind [9]?
**A.** binds

**Q.** Does GCGHPRTDLASLAKRCRRDSDCPGACICRGNGYCG (also called graft 2) [G2] bind [8]?
**A.** binds

B4: R02 (peptide)
peptide: GCRSLARTDLDHLRGRCRRDSDCPGACICRGNGYCG
notes: also called activity '2' in the R0 scaffold
**Q.** Which results are given for B4?
**A.** Kd [3]: 3.2 nM; binding result [6]: no binding; binding result [7]: no binding; binding result [4]: no binding

B5: R32 (peptide)
peptide: B4 peptide with S21R, P24R
notes: also called activity '2' in arginine-rich scaffold R3
**Q.** Does B5 bind [10]?
**A.** binds

B6: R22 (peptide)
peptide: B4 peptide with P24R
notes: also called activity '2' in arginine-rich scaffold R2
**Q.** Does B6 bind [10]?
**A.** binds

B7: R03 (peptide)
peptide: B4 peptide with S4L, L5V, A6F
notes: also called activity '3' in the R0 scaffold
**Q.** What does the source list for B7?
**A.** Kd [3]: 3.6 nM; binding result [6]: no binding; binding result [7]: no binding; binding result [4]: no binding

B8: E12 (peptide)
peptide: B4 peptide with R30E
notes: also called activity '2' in glutamic acid-rich scaffold E1
**Q.** Does B8 bind [10]?
**A.** binds

B9: E42 (peptide)
peptide: B4 peptide with R18E, R19E, R30E
notes: also called activity '2' in glutamic acid-rich scaffold E4
**Q.** Does B9 bind [10]?
**A.** binds

B10: R12 (peptide)
peptide: B4 peptide with S21R
notes: also called activity '2' in arginine-rich scaffold R1
**Q.** Does B10 bind [10]?
**A.** binds
